# Measurements taken from patent US20230381316A1 (METHODIST HOSPITAL, published 2023).
# Molecular target: T1, prostate-specific membrane antigen (PSMA) on PSMA-positive prostate cancer cells (LNCaP, VCaP) (human, UniProt Q04609 1-750)
# T1 construct: Endogenous PSMA on LNCaP and VCaP cells; also called FOLH1; PSMA antigen on cancer cell surface
# Experiment: flow cytometry on LNCaP cells
# T1 sequence (Q04609 whole entry): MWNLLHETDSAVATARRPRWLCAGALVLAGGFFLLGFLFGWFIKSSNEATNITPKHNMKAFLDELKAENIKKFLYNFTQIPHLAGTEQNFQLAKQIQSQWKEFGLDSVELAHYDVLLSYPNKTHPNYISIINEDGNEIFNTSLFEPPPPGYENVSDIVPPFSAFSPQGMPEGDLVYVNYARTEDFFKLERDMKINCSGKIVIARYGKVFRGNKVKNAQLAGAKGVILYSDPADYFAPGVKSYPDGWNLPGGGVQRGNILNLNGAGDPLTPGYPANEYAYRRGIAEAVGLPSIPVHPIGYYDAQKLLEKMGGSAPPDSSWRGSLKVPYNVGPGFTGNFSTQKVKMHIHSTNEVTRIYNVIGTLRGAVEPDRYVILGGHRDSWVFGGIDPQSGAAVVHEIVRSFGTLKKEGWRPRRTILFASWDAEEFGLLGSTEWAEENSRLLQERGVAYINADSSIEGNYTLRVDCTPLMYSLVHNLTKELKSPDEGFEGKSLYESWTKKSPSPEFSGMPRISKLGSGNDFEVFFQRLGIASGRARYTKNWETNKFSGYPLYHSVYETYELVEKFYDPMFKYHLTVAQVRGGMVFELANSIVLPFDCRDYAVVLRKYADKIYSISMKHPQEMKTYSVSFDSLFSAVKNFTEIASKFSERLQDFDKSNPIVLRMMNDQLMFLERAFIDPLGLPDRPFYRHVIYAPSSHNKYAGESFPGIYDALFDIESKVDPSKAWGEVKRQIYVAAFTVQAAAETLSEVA
row,binding result,Binder
1,binds,"anti-PSMA mouse monoclonal antibody #1377 (antibody, V domains shown, Full-length mouse IgG from a hybridoma) VH: VQLQQPGAALVRPGASVRLSCKASGYSFTYYWMNWVMQRPGQGLEWIGMIHPSDSETRLSQKFRDKATLTVDKSSSTVYMQLNSPTSDDSAVYYCARDGNFPYYALDYWGQGTSVTVSS VL: DVVLTQAPLSLPVSLGDQASISCRSSQSLEYSNGNTYLHWYLQKPGQSPELLIYTVSNRFSGVPDRFSGSGSGTDFTLKIHRVEAEDLGVYFCSQSTHVPTFGGGTKLEIKR"
2,binds,"anti-PSMA mouse monoclonal antibody #219 (antibody, V domains shown, Full-length mouse IgG from a hybridoma) VH: VQLQQSGPELEKPGASVKMSCKASGYSFTGYNVNWVRQNNGKSLEWIGNIDPLHGGTTYNQKFKAKATLTVDRSSSTAYLQLKNLTSEDSAVYYCARSSRFDYWGQGTTLTVSS VL: DIVMTQSHKFMSTSVGDRVNITCKASQDVGTAVAWYQQKPGQSPKLLIYWASTRHTGVPDRFTGSGSGTDFTLTISNVQSEDLADYFCHQFTSYPFTFGSGTSLEMKR"
3,binds,"anti-PSMA mouse monoclonal antibody #1207 (antibody, V domains shown, Full-length mouse IgG from a hybridoma) VH: VKLQQSGPGLVKPSQSLSLTCAVTGYSITSDYAWNWIRKFPGNKLEWMGYISYSGRTTYNPSLESRISITRDTSKNQFFLQLNSVTTEDTATYYCARCYYGSSSRWYGMDYWGRGTSVAVSS VL: IVLTQSPAIMSASPGVKVTMTCRASSSVDSSYLHWYQQKSGASPQVWIYSTSNLASGVPARFSGSGSGTSYSLTISSVEAEDAATYYCQQYSGYPLTFGGGTKLEIKR"
4,binds,"anti-PSMA mouse monoclonal antibody #1366 (antibody, V domains shown, Full-length mouse IgG from a hybridoma) VH: VKLQESGPGLVAPSQSLSITCTVSGFSLTDYGVSWIRQPPGKGLEWLGVIWSDGNTYYNSPLKSRLSINKDNSKSQVFLKMNSLQTDDSAMYYCARHKVYTMDYWGQGTSVTVSS VL: TVLTQSPAIMSASPGEKVTMTCRASSSVSSSYLHWYQQKSSASPKLWIYRTSNLASGVPARFSGSGSGTSYSLTISSLEAEDAATYYCQQYSGYPLTFGAGTKLELKR"

# Molecular target: T1, prostate-specific membrane antigen …
# Experiment: flow cytometry on mixed PC3 and LNCaP cells, 20 µg antibody, FITC anti-mouse IgG
# Experimental: Next, the cells were incubated with FITC anti-mouse IgG secondary antibody (Biolegend, cat #406001), followed by flow cytometric analysis.
row,binding result,Binder
1,binds,"anti-PSMA mouse monoclonal antibody #1352 (antibody, IgG2b, V domains shown) VH: VKLQQSGPELEKPGASVKISCKASGYSFTGYNVNWVKQSNGKSLEWIGNIDPYHGGTTYNQKFEAKATLTVDKSSSTAYMQLKSLTSEDSAVYYCARSSRFDYWGQGTTLTVSS VL: DIVMTQSHKFMSTSVGDRVNITCKASQDVGTAVAWYQQKPGQSPKFLIYWASTRHTGVPDRFTGSGSGTDFTLTISNVQSEDLADYFCHQYTSYPFTFGSGTKLEMKR"

# Molecular target: T2, Fluorescence-labeled PSMA protein (biotin-labelled purified PSMA protein with Alexa Fluor 647 Streptavidin) (human, UniProt Q04609 44-750, biotin label (EZ link Sulfo-NHS-Biotin), incubated with Alexa Fluor 647 Streptavidin)
# T2 construct: This is the purified PSMA protein of m9 after labelling; also called fluorescence labeled recombinant PSMA protein; home-made fluorescent probe
# T2 sequence (Q04609 44-750): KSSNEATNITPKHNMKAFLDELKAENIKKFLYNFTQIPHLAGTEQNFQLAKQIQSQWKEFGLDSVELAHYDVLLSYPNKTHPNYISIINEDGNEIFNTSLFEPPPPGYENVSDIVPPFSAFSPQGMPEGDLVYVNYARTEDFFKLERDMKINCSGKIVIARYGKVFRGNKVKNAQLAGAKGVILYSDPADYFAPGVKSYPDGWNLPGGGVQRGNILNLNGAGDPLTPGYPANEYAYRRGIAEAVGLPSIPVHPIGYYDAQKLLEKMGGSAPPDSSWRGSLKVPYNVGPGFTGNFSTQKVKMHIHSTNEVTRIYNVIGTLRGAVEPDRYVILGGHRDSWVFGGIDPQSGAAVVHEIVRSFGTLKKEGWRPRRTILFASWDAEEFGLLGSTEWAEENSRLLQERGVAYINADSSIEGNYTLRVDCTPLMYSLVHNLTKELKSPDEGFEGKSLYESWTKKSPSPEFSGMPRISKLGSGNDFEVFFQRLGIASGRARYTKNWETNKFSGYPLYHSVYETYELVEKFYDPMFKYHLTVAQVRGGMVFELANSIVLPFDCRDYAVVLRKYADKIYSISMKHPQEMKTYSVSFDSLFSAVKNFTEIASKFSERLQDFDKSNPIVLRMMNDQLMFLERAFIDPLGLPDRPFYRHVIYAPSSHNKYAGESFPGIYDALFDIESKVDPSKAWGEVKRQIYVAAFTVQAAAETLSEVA
# Experiment: flow cytometry of CAR T cells with fluorescence labeled recombinant PSMA protein as probe
# From the text: (A3). In vitro cytotoxicity of PSMA-CAR T cells. Human peripheral blood mononuclear cells (PBMC) were isolated from leukopak following a SOP published by Hanc (HIV/ADIS Network Coordination). T cells including CD4+ and CD8+ T cells were isolated from PBMC with human T cell isolation kit (Miltenyi Biotec). T cells were activated by Dvnabeads human T-Activator CD3/CD28 (ThermoFisher) for 24 hrs, then transduced with lentiviruses expressing PSMA-CARs. Transduced cells were expanded for 8 to 21 days in culture. Flow cytometry was performed to determine the percentage of T cells that express functional CAR. To prepare home-made fluorescent probe, we labeled purified PSMA protein with biotin using EZ link Sulfo-NHS-Biotin (ThermoFisher), then incubated with Alexa Fluor® 647 Streptavidin (BioLegend) to obtain the probe.
# For IFNγ induction (FIGS. 14C, 14D)), 4LH-CAR, 7LH-CAR, 5LH-CAR appeared to be the strongest. […] We also tested the in vitro killing on PSMA-positive VCaP cells, PSMA-negative wild type PC3 cells, and PSMA-positive PC3-PSMA stable cells. As anticipated, the PSMA-CAR T cell cytotoxicity IFNγ induction were strictly PSMA-dependent. Moreover, using fluorescence labeled recombinant PSMA protein as probe, flow cytometry analysis was performed on non-transduced and 11 PSMA-CAR T cells.
row,Binder,percentage of CAR T cells positive for PSMA binding
1,"PSMA(448)-CAR (CAR PMC 448, clone 1207, VH-linker-VL) (other, Chimeric antigen receptor on transduced human T cells; also called PMC448 CAR) VKLQQSGPGLVKPSQSLSLTCAVTGYSITSDYAWNWIRKFPGNKLEWMGYISYSGRTTYNPSLESRISITRDTSKNQFFLQLNSVTTEDTATYYCARCYYGSSSRWYGMDYWGRGTSVAVSSGGGGSGGGGSGGGGSIVLTQSPAIMSASPGVKVTMTCRASSSVDSSYLHWYQQKSGASPQVWIYSTSNLASGVPARFSGSGSGTSYSLTISSVEAEDAATYYCQQYSGYPLTFGGGTKLEIKRTTTPAPRPPTPAPTIASQPLSLRPEACRPAAGGAVHTRGLDFACDIYIWAPLAGTCGVLLLSLVITLYCKRGRKKLLYIFKQPFMRPVQTTQEEDGCSCRFPEEEEGGCELRVKFSRSADAPAYKQGQNQLYNELNLGRREEYDVLDKRRGRDPEMGGKPRRKNPQEGLYNELQKDKMAEAYSEIGMKGERRRGKGHDGLYQGLSTATKDTYDALHMQALPPR",2.23%
2,"PSMA(444)-CAR (CAR PMC 444, clone 219, VH-linker-VL) (other, Chimeric antigen receptor (scFv-CD8a TM-4-1BB-CD3zeta) on transduced human T cells; also called PMC444 CAR) VQLQQSGPELEKPGASVKMSCKASGYSFTGYNVNWVRQNNGKSLEWIGNIDPLHGGTTYNQKFKAKATLTVDRSSSTAYLQLKNLTSEDSAVYYCARSSRFDYWGQGTTLTVSSGGGGSGGGGSGGGGSDIVMTQSHKFMSTSVGDRVNITCKASQDVGTAVAWYQQKPGQSPKLLIYWASTRHTGVPDRFTGSGSGTDFTLTISNVQSEDLADYFCHQFTSYPFTFGSGTSLEMKRTTTPAPRPPTPAPTIASQPLSLRPEACRPAAGGAVHTRGLDFACDIYIWAPLAGTCGVLLLSLVITLYCKRGRKKLLYIFKQPFMRPVQTTQEEDGCSCRFPEEEEGGCELRVKFSRSADAPAYKQGQNQLYNELNLGRREEYDVLDKRRGRDPEMGGKPRRKNPQEGLYNELQKDKMAEAYSEIGMKGERRRGKGHDGLYQGLSTATKDTYDALHMQALPPR",47.1%
3,"PSMA(447)-CAR (CAR PMC 447, clone 1352, VH-linker-VL) (other, Chimeric antigen receptor on transduced human T cells; also called PMC447 CAR) VKLQQSGPELEKPGASVKISCKASGYSFTGYNVNWVKQSNGKSLEWIGNIDPYHGGTTYNQKFEAKATLTVDKSSSTAYMQLKSLTSEDSAVYYCARSSRFDYWGQGTTLTVSSGGGGSGGGGSGGGGSDIVMTQSHKFMSTSVGDRVNITCKASQDVGTAVAWYQQKPGQSPKFLIYWASTRHTGVPDRFTGSGSGTDFTLTISNVQSEDLADYFCHQYTSYPFTFGSGTKLEMKRTTTPAPRPPTPAPTIASQPLSLRPEACRPAAGGAVHTRGLDFACDIYIWAPLAGTCGVLLLSLVITLYCKRGRKKLLYIFKQPFMRPVQTTQEEDGCSCRFPEEEEGGCELRVKFSRSADAPAYKQGQNQLYNELNLGRREEYDVLDKRRGRDPEMGGKPRRKNPQEGLYNELQKDKMAEAYSEIGMKGERRRGKGHDGLYQGLSTATKDTYDALHMQALPPR",3.08%
4,"PSMA(8LH)-CAR, derived from antibody #1207 (VL-linker-VH) (other, Chimeric antigen receptor on transduced human T cells) IVLTQSPAIMSASPGVKVTMTCRASSSVDSSYLHWYQQKSGASPQVWIYSTSNLASGVPARFSGSGSGTSYSLTISSVEAEDAATYYCQQYSGYPLTFGGGTKLEIKRGGGGSGGGGSGGGGSVKLQQSGPGLVKPSQSLSLTCAVTGYSITSDYAWNWIRKFPGNKLEWMGYISYSGRTTYNPSLESRISITRDTSKNQFFLQLNSVTTEDTATYYCARCYYGSSSRWYGMDYWGRGTSVAVSSTTTPAPRPPTPAPTIASQPLSLRPEACRPAAGGAVHTRGLDFACDIYIWAPLAGTCGVLLLSLVITLYCKRGRKKLLYIFKQPFMRPVQTTQEEDGCSCRFPEEEEGGCELRVKFSRSADAPAYKQGQNQLYNELNLGRREEYDVLDKRRGRDPEMGGKPRRKNPQEGLYNELQKDKMAEAYSEIGMKGERRRGKGHDGLYQGLSTATKDTYDALHMQALPPR",16%
5,"PSMA(6LH)-CAR, derived from antibody #1366 (VL-linker-VH) (other, Chimeric antigen receptor on transduced human T cells) TVLTQSPAIMSASPGEKVTMTCRASSSVSSSYLHWYQQKSSASPKLWIYRTSNLASGVPARFSGSGSGTSYSLTISSLEAEDAATYYCQQYSGYPLTFGAGTKLELKRGGGGSGGGGSGGGGSVKLQESGPGLVAPSQSLSITCTVSGFSLTDYGVSWIRQPPGKGLEWLGVIWSDGNTYYNSPLKSRLSINKDNSKSQVFLKMNSLQTDDSAMYYCARHKVYTMDYWGQGTSVTVSSTTTPAPRPPTPAPTIASQPLSLRPEACRPAAGGAVHTRGLDFACDIYIWAPLAGTCGVLLLSLVITLYCKRGRKKLLYIFKQPFMRPVQTTQEEDGCSCRFPEEEEGGCELRVKFSRSADAPAYKQGQNQLYNELNLGRREEYDVLDKRRGRDPEMGGKPRRKNPQEGLYNELQKDKMAEAYSEIGMKGERRRGKGHDGLYQGLSTATKDTYDALHMQALPPR",17.8%

# More lines, now with the values ahead:
row,percentage of CAR T cells positive for PSMA binding,Binder
1,35.5%,"PSMA(7LH)-CAR, derived from antibody #1352 (VL-linker-VH) (other, Chimeric antigen receptor on transduced human T cells) DIVMTQSHKFMSTSVGDRVNITCKASQDVGTAVAWYQQKPGQSPKFLIYWASTRHTGVPDRFTGSGSGTDFTLTISNVQSEDLADYFCHQYTSYPFTFGSGTKLEMKRGGGGSGGGGSGGGGSVKLQQSGPELEKPGASVKISCKASGYSFTGYNVNWVKQSNGKSLEWIGNIDPYHGGTTYNQKFEAKATLTVDKSSSTAYMQLKSLTSEDSAVYYCARSSRFDYWGQGTTLTVSSTTTPAPRPPTPAPTIASQPLSLRPEACRPAAGGAVHTRGLDFACDIYIWAPLAGTCGVLLLSLVITLYCKRGRKKLLYIFKQPFMRPVQTTQEEDGCSCRFPEEEEGGCELRVKFSRSADAPAYKQGQNQLYNELNLGRREEYDVLDKRRGRDPEMGGKPRRKNPQEGLYNELQKDKMAEAYSEIGMKGERRRGKGHDGLYQGLSTATKDTYDALHMQALPPR"
2,19.6%,"PSMA(446)-CAR (CAR PMC 446, clone 1366, VH-linker-VL) (other, Chimeric antigen receptor on transduced human T cells; also called PMC446 CAR) VKLQESGPGLVAPSQSLSITCTVSGFSLTDYGVSWIRQPPGKGLEWLGVIWSDGNTYYNSPLKSRLSINKDNSKSQVFLKMNSLQTDDSAMYYCARHKVYTMDYWGQGTSVTVSSGGGGSGGGGSGGGGSTVLTQSPAIMSASPGEKVTMTCRASSSVSSSYLHWYQQKSSASPKLWIYRTSNLASGVPARFSGSGSGTSYSLTISSLEAEDAATYYCQQYSGYPLTFGAGTKLELKRTTTPAPRPPTPAPTIASQPLSLRPEACRPAAGGAVHTRGLDFACDIYIWAPLAGTCGVLLLSLVITLYCKRGRKKLLYIFKQPFMRPVQTTQEEDGCSCRFPEEEEGGCELRVKFSRSADAPAYKQGQNQLYNELNLGRREEYDVLDKRRGRDPEMGGKPRRKNPQEGLYNELQKDKMAEAYSEIGMKGERRRGKGHDGLYQGLSTATKDTYDALHMQALPPR"
